Drawing on patent US20140087995A1 (published 2014), this text covers IC50 for five molecules.

Numbered stars: 1 amine (or outer) side, 2 acyl side, 3 side chain; on linkers, the order of the positions; unused ones are H or OH. Bridge positions count the residues as written; N and C are the ends. Side chains are listed from the residue outwards. Ends that are not written are not given here. * marks the point of attachment. C20 diacid = O=C(O)CCCCCCCCCCCCCCCCCCC(=O)*; γGlu = O=C(O)[C@H](CCC(=O)[*:2])N[*:1]

The chains are these.
T1: human amylin receptor (amylin 3(a) receptor: human calcitonin receptor with RAMP-3) (human, UniProt P30988 25-474; O60896 24-148)
T1 construct: whole, on cells; also called hAmylin-R; hAmylinR
T1 sequence (looked up) 1: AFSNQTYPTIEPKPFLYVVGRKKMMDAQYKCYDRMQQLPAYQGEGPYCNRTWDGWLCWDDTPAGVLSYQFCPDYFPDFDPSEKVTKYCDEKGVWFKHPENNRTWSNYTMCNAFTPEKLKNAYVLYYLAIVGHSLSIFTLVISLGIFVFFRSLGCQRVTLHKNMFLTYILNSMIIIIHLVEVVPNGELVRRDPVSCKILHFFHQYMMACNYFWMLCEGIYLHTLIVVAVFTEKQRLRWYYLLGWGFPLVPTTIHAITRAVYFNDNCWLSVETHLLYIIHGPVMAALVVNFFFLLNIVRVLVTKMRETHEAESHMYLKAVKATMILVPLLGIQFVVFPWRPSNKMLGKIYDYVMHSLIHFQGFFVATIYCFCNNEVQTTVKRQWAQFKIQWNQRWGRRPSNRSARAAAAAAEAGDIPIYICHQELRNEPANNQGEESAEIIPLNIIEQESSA
T1 sequence (looked up) 2: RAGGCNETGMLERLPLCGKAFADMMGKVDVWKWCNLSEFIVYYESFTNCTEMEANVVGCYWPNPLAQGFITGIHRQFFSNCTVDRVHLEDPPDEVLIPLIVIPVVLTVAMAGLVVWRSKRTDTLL

B1: N^ε1-[(4S)-4-carboxy-4-(19-carboxynonadecanoylamino)butanoyl]-[Arg17,Pro21,Pro27,His35]-h-amylin (peptide)
peptide: K([γGlu-C20 diacid])CNTATCATQRLANFLRHSSPNFGAIPSSTNVGSHTY-NH2
modifications: disulfide 2-7; N-terminus assumed
SMILES: CC[C@H](C)[C@H](NC(=O)[C@H](C)NC(=O)CNC(=O)[C@H](Cc1ccccc1)NC(=O)[C@H](CC(N)=O)NC(=O)[C@@H]1CCCN1C(=O)[C@H](CO)NC(=O)[C@H](CO)NC(=O)[C@H](Cc1c[nH]cn1)NC(=O)[C@H](CCCNC(=N)N)NC(=O)[C@H](CC(C)C)NC(=O)[C@H](Cc1ccccc1)NC(=O)[C@H](CC(N)=O)NC(=O)[C@H](C)NC(=O)[C@H](CC(C)C)NC(=O)[C@H](CCCNC(=N)N)NC(=O)[C@H](CCC(N)=O)NC(=O)[C@@H](NC(=O)[C@H](C)NC(=O)[C@@H]1CSSC[C@H](NC(=O)[C@@H](N)CCCCNC(=O)CC[C@H](NC(=O)CCCCCCCCCCCCCCCCCCC(=O)O)C(=O)O)C(=O)N[C@@H](CC(N)=O)C(=O)N[C@@H]([C@@H](C)O)C(=O)N[C@@H](C)C(=O)N[C@@H]([C@@H](C)O)C(=O)N1)[C@@H](C)O)C(=O)N1CCC[C@H]1C(=O)N[C@@H](CO)C(=O)N[C@@H](CO)C(=O)N[C@H](C(=O)N[C@@H](CC(N)=O)C(=O)N[C@H](C(=O)NCC(=O)N[C@@H](CO)C(=O)N[C@@H](Cc1c[nH]cn1)C(=O)N[C@H](C(=O)N[C@@H](Cc1ccc(O)cc1)C(N)=O)[C@@H](C)O)C(C)C)[C@@H](C)O
notes: also called 60; compound 60
B2: N^ε1-[(4S)-4-carboxy-4-(19-carboxynonadecanoylamino)butanoyl]-[Glu14,Arg17,Pro21,Pro27,Arg35]-h-amylin (peptide)
peptide: K([γGlu-C20 diacid])CNTATCATQRLAEFLRHSSPNFGAIPSSTNVGSRTY-NH2
modifications: disulfide 2-7; N-terminus assumed
SMILES: CC[C@H](C)[C@H](NC(=O)[C@H](C)NC(=O)CNC(=O)[C@H](Cc1ccccc1)NC(=O)[C@H](CC(N)=O)NC(=O)[C@@H]1CCCN1C(=O)[C@H](CO)NC(=O)[C@H](CO)NC(=O)[C@H](Cc1c[nH]cn1)NC(=O)[C@H](CCCNC(=N)N)NC(=O)[C@H](CC(C)C)NC(=O)[C@H](Cc1ccccc1)NC(=O)[C@H](CCC(=O)O)NC(=O)[C@H](C)NC(=O)[C@H](CC(C)C)NC(=O)[C@H](CCCNC(=N)N)NC(=O)[C@H](CCC(N)=O)NC(=O)[C@@H](NC(=O)[C@H](C)NC(=O)[C@@H]1CSSC[C@H](NC(=O)[C@@H](N)CCCCNC(=O)CC[C@H](NC(=O)CCCCCCCCCCCCCCCCCCC(=O)O)C(=O)O)C(=O)N[C@@H](CC(N)=O)C(=O)N[C@@H]([C@@H](C)O)C(=O)N[C@@H](C)C(=O)N[C@@H]([C@@H](C)O)C(=O)N1)[C@@H](C)O)C(=O)N1CCC[C@H]1C(=O)N[C@@H](CO)C(=O)N[C@@H](CO)C(=O)N[C@H](C(=O)N[C@@H](CC(N)=O)C(=O)N[C@H](C(=O)NCC(=O)N[C@@H](CO)C(=O)N[C@@H](CCCNC(=N)N)C(=O)N[C@H](C(=O)N[C@@H](Cc1ccc(O)cc1)C(N)=O)[C@@H](C)O)C(C)C)[C@@H](C)O
notes: also called 51; compound 51
B3: N^ε1-[(4S)-4-carboxy-4-(19-carboxynonadecanoylamino)butanoyl]-[His14,Arg17,Pro21,Pro27,Arg34]-h-amylin (peptide)
peptide: K([γGlu-C20 diacid])CNTATCATQRLAHFLRHSSPNFGAIPSSTNVGRNTY-NH2
modifications: disulfide 2-7; N-terminus assumed
SMILES: CC[C@H](C)[C@H](NC(=O)[C@H](C)NC(=O)CNC(=O)[C@H](Cc1ccccc1)NC(=O)[C@H](CC(N)=O)NC(=O)[C@@H]1CCCN1C(=O)[C@H](CO)NC(=O)[C@H](CO)NC(=O)[C@H](Cc1c[nH]cn1)NC(=O)[C@H](CCCNC(=N)N)NC(=O)[C@H](CC(C)C)NC(=O)[C@H](Cc1ccccc1)NC(=O)[C@H](Cc1c[nH]cn1)NC(=O)[C@H](C)NC(=O)[C@H](CC(C)C)NC(=O)[C@H](CCCNC(=N)N)NC(=O)[C@H](CCC(N)=O)NC(=O)[C@@H](NC(=O)[C@H](C)NC(=O)[C@@H]1CSSC[C@H](NC(=O)[C@@H](N)CCCCNC(=O)CC[C@H](NC(=O)CCCCCCCCCCCCCCCCCCC(=O)O)C(=O)O)C(=O)N[C@@H](CC(N)=O)C(=O)N[C@@H]([C@@H](C)O)C(=O)N[C@@H](C)C(=O)N[C@@H]([C@@H](C)O)C(=O)N1)[C@@H](C)O)C(=O)N1CCC[C@H]1C(=O)N[C@@H](CO)C(=O)N[C@@H](CO)C(=O)N[C@H](C(=O)N[C@@H](CC(N)=O)C(=O)N[C@H](C(=O)NCC(=O)N[C@@H](CCCNC(=N)N)C(=O)N[C@@H](CC(N)=O)C(=O)N[C@H](C(=O)N[C@@H](Cc1ccc(O)cc1)C(N)=O)[C@@H](C)O)C(C)C)[C@@H](C)O
notes: also called 85; compound 85
B4: N^ε1-[(4S)-4-carboxy-4-(19-carboxynonadecanoylamino)butanoyl]-[His14,Arg17,Pro21,Pro27,His34]-h-amylin (peptide)
peptide: K([γGlu-C20 diacid])CNTATCATQRLAHFLRHSSPNFGAIPSSTNVGHNTY-NH2
modifications: disulfide 2-7; N-terminus assumed
SMILES: CC[C@H](C)[C@H](NC(=O)[C@H](C)NC(=O)CNC(=O)[C@H](Cc1ccccc1)NC(=O)[C@H](CC(N)=O)NC(=O)[C@@H]1CCCN1C(=O)[C@H](CO)NC(=O)[C@H](CO)NC(=O)[C@H](Cc1c[nH]cn1)NC(=O)[C@H](CCCNC(=N)N)NC(=O)[C@H](CC(C)C)NC(=O)[C@H](Cc1ccccc1)NC(=O)[C@H](Cc1c[nH]cn1)NC(=O)[C@H](C)NC(=O)[C@H](CC(C)C)NC(=O)[C@H](CCCNC(=N)N)NC(=O)[C@H](CCC(N)=O)NC(=O)[C@@H](NC(=O)[C@H](C)NC(=O)[C@@H]1CSSC[C@H](NC(=O)[C@@H](N)CCCCNC(=O)CC[C@H](NC(=O)CCCCCCCCCCCCCCCCCCC(=O)O)C(=O)O)C(=O)N[C@@H](CC(N)=O)C(=O)N[C@@H]([C@@H](C)O)C(=O)N[C@@H](C)C(=O)N[C@@H]([C@@H](C)O)C(=O)N1)[C@@H](C)O)C(=O)N1CCC[C@H]1C(=O)N[C@@H](CO)C(=O)N[C@@H](CO)C(=O)N[C@H](C(=O)N[C@@H](CC(N)=O)C(=O)N[C@H](C(=O)NCC(=O)N[C@@H](Cc1c[nH]cn1)C(=O)N[C@@H](CC(N)=O)C(=O)N[C@H](C(=O)N[C@@H](Cc1ccc(O)cc1)C(N)=O)[C@@H](C)O)C(C)C)[C@@H](C)O
notes: also called 81; compound 81
B5: N^ε1-[(4S)-4-carboxy-4-(19-carboxynonadecanoylamino)butanoyl]-[Arg17,Pro21,Pro27,Lys35]-h-amylin (peptide)
peptide: K([γGlu-C20 diacid])CNTATCATQRLANFLRHSSPNFGAIPSSTNVGSKTY-NH2
modifications: disulfide 2-7; N-terminus assumed
SMILES: CC[C@H](C)[C@H](NC(=O)[C@H](C)NC(=O)CNC(=O)[C@H](Cc1ccccc1)NC(=O)[C@H](CC(N)=O)NC(=O)[C@@H]1CCCN1C(=O)[C@H](CO)NC(=O)[C@H](CO)NC(=O)[C@H](Cc1c[nH]cn1)NC(=O)[C@H](CCCNC(=N)N)NC(=O)[C@H](CC(C)C)NC(=O)[C@H](Cc1ccccc1)NC(=O)[C@H](CC(N)=O)NC(=O)[C@H](C)NC(=O)[C@H](CC(C)C)NC(=O)[C@H](CCCNC(=N)N)NC(=O)[C@H](CCC(N)=O)NC(=O)[C@@H](NC(=O)[C@H](C)NC(=O)[C@@H]1CSSC[C@H](NC(=O)[C@@H](N)CCCCNC(=O)CC[C@H](NC(=O)CCCCCCCCCCCCCCCCCCC(=O)O)C(=O)O)C(=O)N[C@@H](CC(N)=O)C(=O)N[C@@H]([C@@H](C)O)C(=O)N[C@@H](C)C(=O)N[C@@H]([C@@H](C)O)C(=O)N1)[C@@H](C)O)C(=O)N1CCC[C@H]1C(=O)N[C@@H](CO)C(=O)N[C@@H](CO)C(=O)N[C@H](C(=O)N[C@@H](CC(N)=O)C(=O)N[C@H](C(=O)NCC(=O)N[C@@H](CO)C(=O)N[C@@H](CCCCN)C(=O)N[C@H](C(=O)N[C@@H](Cc1ccc(O)cc1)C(N)=O)[C@@H](C)O)C(C)C)[C@@H](C)O
notes: also called 35; compound 35

The experiment addresses T1, human amylin receptor (amylin 3(a) …). In words: SPA displacement of 125I-rat amylin, hAmylin 3(a) receptor membranes. Summed up: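 One-site competition analysis of SPA counts yielded IC₅₀ as a measure of affinity. Membranes were at 35 ng/μL final; incubation was 120 min at 25° C, pH 7.4.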
For orientation: In a radioligand displacement assay an active substance lowers the binding of a labelled ligand.
As a reminder, the IC50 is the concentration at which inhibition is half-maximal. Take B1: the IC50 was 695 pM.
Next, B2: 828 pM.
As for B3, the figure is 876 pM; as for B4, 271 pM; as for B5, 970 pM.
